# From patent US20180319855A1, “GENETICALLY MUTATED AEQUORIN-BASED BIOSENSORS WITH EXTRA SENSITIVITY TO CALCIUM AND IMPROVED BIOLUMINESCENCE INTENSITY” (CENTRE NATIONAL DE LA RECHERCHE SCIENTIFIQUE (CNRS), priority 2015, published 2018)
# Where two headings read alike, the source gives them in different places.
# Key:
# [1] = Thermostability: relative bioluminescence activity after 30 min incubation; format: physicochemical; conditions: for Thermostability, luminescence activity relative to wt-aequorin: CLZ-f; for less activity compared to wt-aeq (thermostability): after incubation at 30 and 40° C.
# Description: Thermostability of aequorin and redquorin mutant with increased affinity for calcium were compared to wt-aequorin (FIG. 5). The purified photoprotein samples were reconstituted with CLZ-f (as detailed earlier) and let to calibrate at room temperature (20-24° C.) for 20 min before taken the first measurement of total counts using saturating calcium solution (50 mM Tris-HCl, 100 mM CaCl2, pH 7.5). Samples were then incubated at two different temperatures (30 to 40° C.) for 30 min, and let equilibrate at room temperature for 15 minbefore taken the second measurement of total counts in the sample. The relative bioluminescence activity at each temperature was calculated by the ratio 2nd counts (at target T° C.)/1st counts (at initial T° C.) multiplied by 100.
# Table 6 highlights the analysis of thermostability data obtained at two temperatures for aequorin and redquorin mutants, as well as CitA and GA. The values represent the degree of change in luminescence activity compared to wt-aeq, at each temperature. All values are relative to wt-aequorin (at each temperature) and were calculated by dividing the obtained data for each mutant/variant by the data for wt-aeq (as reference). The data were taken from FIG. 5.
# [2] = Ca2+ sensitivity curves of reconstituted photoproteins (L/Lmax vs free Ca2+); format: biochemical; conditions: for EC50: read-out: Calcium sensitivity, EC50
# Description: For in vitro reconstitution, the purified and concentrated samples of apoaequorin and redquorin mutant proteins were buffer-exchanged to 50 mM Tris-HCl (pH 7.5), 150 mM NaCl, 10 mM EGTA, 5 mM ß-mercaptoethanol, supplemented with 5 μM CLZ-f or CLZ-native and incubated overnight at 4° C., in the dark. The next day, samples were passed through molecular weight cut-offs (AmiconUitra MWCO, 10K and 50K, from Millipore), then resuspended in Zero-Ca^2+ buffer (30 mM MOPS, 100 mM KCl and 10 mM EGTA, pH 7.2) for calcium affinity, emission decay kinetics and spectral analysis assays. As for in cellulo reconstitution, HEK cells transiently expressing the proteins of apoaequorin and aporedquorin mutants were washed twice with Hank's Balanced Salt Solution (HBSS) and incubated in the dark, with 4 μM of the desired CLZ diluted in OptiMEM I medium (Gibco), for 2-3h at 37° C. and 5% CO2. Cells were washed once and maintained in HBSS at 37° C. for 20 min before the experiment.
# Functional Analysis of Aequorin Mutants and Fusions Ca^2+ Sensitivity Curves.
# Purified and reconstituted samples with CLZ-f or CLZ-native already buffered-exchanged to zero-calcium buffer ensured to minimize calcium contamination that could interfere with the measurements. Fifteen microliter aliquot of photoprotein samples (concentration range, 50 to 90 ng/μl) was placed in a home-made luminometer and mixed with 300 μl solution containing the desired concentration of free-Ca^2+. The solutions of EGTA-buffered with varying free-Ca^2+ prepared according to the manufacturer instruction for the kit (Molecular Probes, Invitrogen). Integration of the luminescence emission (per second) was measured for 20 seconds (background) before injecting a solution with known [free-Ca^2+] and lasted until stable or decaying signal (at final-phase) was obtained. At this point, 400 μl of a saturating calcium solution (30 mM MOPS, 100 mM CaCl2, pH 7.2) was rapidly injected (less than 30 ms) and light integration continued until all aequorin had been consumed and light intensity had gone back to background signal. Luminescence intensity (L) at different [Ca^2+] was taken as the response peak value in case of decaying signal or as the stable value in case of stable emission. Lmax, was measured by integrating all remaining luminescence signal from that moment (L value) to the end of the experiment. The EC50 values were extracted from a sigmoidal dose-response fit (variable slope) using GraphPad Prism software.
# [3] = system: endogenous P2Y2 receptor; assay: Assay of activation of endogenous P2Y2 receptor by ATP in CHO cells stably expressing photoproteins; format: cell-based; conditions: CHO cells stably expressing the sensor
# Description: Stably prepared CHO cells were loaded with 5 μM coelenterazine in 130 mM NaCl, 5 mM KCl, 1 mM MgCl2, 2 mM CaCl2, 5 mM NaHCO3, 20 mM N-(2-hydroxyethyl) piperazine-N′-ethanesulfonic acid (HEPES), pH 7.4 for 4 h at ambient temperature.
# To produce stable CHO cell lines, the cells transfected with GA and Redquorin variant plasmids were seeded on six-well plates and grown in the same medium with addition of Geneticin sulfate (G418) (Gibco, UK) at 1 mg/ml under the same conditions with replacement of the medium by fresh medium every 2 days. After 7-10 days of selection, CHO cells were transferred into a medium without antibiotic. To select clones with the highest bioluminescence activity, one run of limiting dilution was performed. CHO cells after G418 selection were seeded on 96-well plates (approximately 0.5 cells per well) and grown in DMEM/F12 medium supplemented with 10% fetal calf serum at 37° C., 5% CO2 for up to 80-90% confluence. Before the bioluminescence measurements, the plates with monoclones of CHO cells expressing the corresponding photoprotein were duplicated and grown for up to 90-100% confluence. Then, the medium was removed and cells were loaded with coelenterazine, and bioluminescence in each well was measured according to the procedure described earlier. As a result, the CHO cell clones with the highest bioluminescence activity were selected.
# Assay of Activation of Endogenous P2Y2 Receptor in CHO Cells
# The CHO cell lines stably expressing each photoprotein were used in assay of activation of endogenous P2Y2 receptor by ATP. The day before the measurements, the corresponding cells were seeded on 96-well plates with DMEM/F12 medium supplemented with 10% fetal calf serum and were grown at 37° C. with 5% CO2 for up to 90-100% confluence. Then, the medium was replaced by 100 μl of coelenterazine solution per well (5 μM coelenterazine in 130 mM NaCl, 5 mM KCl, 1 mM MgCl2, 2 mM CaCl2, 5 mM NaHCO3, 20 mM HEPES, pH7.4) and the cells were incubated at 23° C. for 4 h. Emission from photoproteins in the cells was measured using a Mithras LB 940 plate luminometer. The ATP was injected at a given concentration to trigger an intracellular Ca^2+ response in the cells and the measurement started immediately. The bioluminescence was integrated over a time interval of 0.05 s for 30 s.
# [4] = CLZ-f, L/Lmax compared to Aeq-wt
# [5] = aequorin proteins reconstituted with CLZ-f, sigmoidal curve fit, mean ± SD, n at least 3
"EC50 [2, 5]","EC50 ([2]; CLZ-f, redquorin series, CitA, GA)","EC50 ([2]; CLZ-native, redquorin series, CitA, GA)","EC50 ([3]; ATP dose-response, read-out: EC50 (half-maximal effective concentration of ATP for P2Y2 activation))",Molecule,"Thermostability, luminescence activity relative to wt-aequorin ([1]; 30° C. for 30 min)","Thermostability, luminescence activity relative to wt-aequorin ([1]; 40° C. for 30 min)",less activity compared to wt-aeq (thermostability) [1],"Relative intensity at pCa 6.5 [2, 4]","Relative intensity at pCa 7.2 [2, 4]","Relative intensity at pCa 6.5 ([2]; CLZ-f, relative to Redq)","Relative intensity at pCa 7.2 ([2]; CLZ-f, relative to Redq)","Relative intensity at pCa 6.5 ([2]; CLZ-native, relative to Redq)","Relative intensity at pCa 7.2 ([2]; CLZ-native, relative to Redq)",[ATP] DL (detection limit) [3]
400 ± 14 nM,–,–,–,"N121D: apoaequorin mutant, asparagine 121 replaced by aspartic acid (SEQ ID NO:9) (protein, mutant aequorin) SKLTSDFDNPRWIGRHKHMFNFLDVNHNGKISLDEMVYKASDIVINNLGATPEQAKRHKDAVEAFFGGAGMKYGVETDWPAYIEGWKKLATDELEKYAKNEPTLIRIWGDALFDIVDKDQDGAITLDEWKAYTKAAGIIQSSEDCEETFRVCDIDESGQLDVDEMTRQHLGFWYTMDPACEKLYGGAVP",0.81,0.82,19%,4.9,2.1,–,–,–,–,–
295 ± 17 nM,–,–,–,"QD + ND: apoaequorin double mutant Q159D + N121D (SEQ ID NO:13) (protein, mutant aequorin) SKLTSDFDNPRWIGRHKHMFNFLDVNHNGKISLDEMVYKASDIVINNLGATPEQAKRHKDAVEAFFGGAGMKYGVETDWPAYIEGWKKLATDELEKYAKNEPTLIRIWGDALFDIVDKDQDGAITLDEWKAYTKAAGIIQSSEDCEETFRVCDIDESGDLDVDEMTRQHLGFWYTMDPACEKLYGGAVP",0.81,0.81,20%,29.0,41.7,–,–,–,–,–
271 ± 15 nM,–,–,–,"QD + AD: apoaequorin double mutant Q159D + A123D (SEQ ID NO:15) (protein, mutant aequorin) SKLTSDFDNPRWIGRHKHMFNFLDVNHNGKISLDEMVYKASDIVINNLGATPEQAKRHKDAVEAFFGGAGMKYGVETDWPAYIEGWKKLATDELEKYAKNEPTLIRIWGDALFDIVDKDQNGDITLDEWKAYTKAAGIIQSSEDCEETFRVCDIDESGDLDVDEMTRQHLGFWYTMDPACEKLYGGAVP",0.97,0.94,–,26.2,15.0,–,–,–,–,–
492 ± 10 nM,–,–,–,"Q159G: apoaequorin mutant, glutamine 159 replaced by glycine (SEQ ID NO:7) (protein, mutant aequorin) SKLTSDFDNPRWIGRHKHMFNFLDVNHNGKISLDEMVYKASDIVINNLGATPEQAKRHKDAVEAFFGGAGMKYGVETDWPAYIEGWKKLATDELEKYAKNEPTLIRIWGDALFDIVDKDQNGAITLDEWKAYTKAAGIIQSSEDCEETFRVCDIDESGGLDVDEMTRQHLGFWYTMDPACEKLYGGAVP",0.96,0.92,–,3.3,3.2,–,–,–,–,–
–,336 ± 11 nM,577 ± 33 nM,3100 ± 400 nM,"Redq/QT + AD: aporedquorin mutant Q159T + A123D (SEQ ID NO:25) (protein, mutant aequorin) MVSKGEEVIKEFMRFKVRMEGSMNGHEFEIEGEGEGRPYEGTQTAKLKVTKGGPLPFAWDILSPQFMYGSKAYVKHPADIPDYKKLSFPEGFKWERVMNFEDGGLVTVTQDSSLQDGTLIYKVKMRGTNFPPDGPVMQKKTMGWEASTERLYPRDGVLKGEIHQALKLKDGGHYLVEFKTIYMAKKPVQLPGYYYVDTKLDITSHNEDYTIVEQYERSEGRHHLFLGHGTGSTGSGSSGTASSEDNNMAVIKEFMRFKVRMEGSMNGHEFEIEGEGEGRPYEGTQTAKLKVTKGGPLPFAWDILSPQFMYGSKAYVKHPADIPDYKKLSFPEGFKWERVMNFEDGGLVTVTQDSSLQDGTLIYKVKMRGTNFPPDGPVMQKKTMGWEASTERLYPRDGVLKGEIHQALKLKDGGHYLVEFKTIYMAKKPVQLPGYYYVDTKLDITSHNEDYTIVEQYERSEGRHHLFLSGFDNPRWIGRHKHMFNFLDVNHNGKISLDEMVYKASDIVINNLGATPEQAKRHKDAVEAFFGGAGMKYGVETDWPAYIEGWKKLATDELEKYAKNEPTLIRIWGDALFDIVDKDQNGDITLDEWKAYTKAAGIIQSSEDCEETFRVCDIDESGTLDVDEMTRQHLGFWYTMDPACEKLYGGAVP",0.94,1.00,–,–,–,14.4,7.4,14.4,10.0,1230 ± 51 nM
